# Experimental data taken from the DeepSol protein solubility set.
# Test: soluble on expression in E. coli; label from the status in PepcDB or PDB records
row,Sequence,soluble on expression in E. coli
1,MIDIHNHILVDIDDGPKTIEKSIALLKQAKDEGVTSIVATPHHLHPRYDNTFQQVLVKLAELRTHPEVQALDIKLFPGQEIRITDSILKGLDNGSIQGINRSKYLLIEFPTGEVPHYTKQLFFEIQSRGYIPIIAHPERNRSIAKNPEILYELVANGALSQLTSSSLVGGFGKNIQKLSLQFIECNLAHFVASDAHSCDQRPFLMQELFHNHKLKKYSNDIEALLRNASSVINDNFVYLDRPTKPGKVKSFLKWF,not soluble
2,MIDKKTYNEIGVHIPSILLPKEGIDMQKWSVVACDQYTSEPEYWEEVEKKVGDNPSTLHLIFPEIYLEHGNADERIKRINNEMKRYINEGILVSQKPCMLLVDRSTPHTKSRKGLILAVDLEKYDYSAGSQTLIRATEGTVIERLPPRVKIRENAILELPHVMLLIDDPDKTVIEPLAGKLDSFEKVYDFELMMNGGHIRGYRIDDGETLKGILKAIEALADPEVFKSKYKVGDDKGVLLFAVGDGNHSLASAKVHWENVKKSLSEAEVEDHPARFALVEVVNVHDDGIVFEPIHRVLFNIEPESVLNALQDFFGSSCCSLEKFDSLESVNKRLSELKREEAVHSFGFVTDRSFGVFTVQNLKHNLEVATLQGFLDYYLGKQKEAKVDYIHGEDVVTKLGSKPGNIGFYLPSMEKHDLFKTVILDGVLPRKTFSMGEAEEKRFYLECRKIVKD,soluble
3,MIEFSENSHRKSLIEELPRIVERGEKEAQKILDGLSKSQRITLQTNELVLPTKAIGELNKFYGQTIKTENNNEFLNRLIYGDNLLAMQAFLAGDPETGLPSMRGKIDLIYIDPPFDSKANYRTKIHLPTADVEQMPSVIEQFAYSDTWKDGTKSYLEMIVPRLVLMKELLSEKGSIYVHIDWHVGHYVKVIMDEIFGRENFVNEIVWKKTNSPKAQSKGFGTQHDVLYIYRKTPQFIFNQIKKEPDEDYLKSYVYDDNDGRGPYQTVALVAGGIQRSENRKIFEFHGVRAPWLYSLENLERFWSDGRIFKTKTGYRLKVYLKDIALRLYLIYGLTRK,not soluble
4,MIELDQTNIPKHVAIIMDGNGRWAKQKNKMRIFGHTNGVTAVRKAVAYARQIGVEVLTLYAFSSENWSRPEQEISALMSLFMQALDREVKKLHKNNICLKIIGDVSRFSETLQEKIKKAENLTEKNTALTLNIAANYGGCWDIIQAAKQIAEKVKKEEMSVSDINNSTFQHHLATQNAPPVDLLIRTSGEQRISNFLLWQIAYAELYFSDVLWPDFNQLEFNRAIASYQQRHRRFGGTE,not soluble
5,MIEQPDSKSAKPLYKQLEAALKEAIARGEYKPGQQIPTENELSVRWQVSRVTVRKALDALTRENLLTRVSGKGTFVSGEKFQRSMTGIMSFSELCQSQGRRPGSRTIKSVFESVDDETKALLNMNDGEKAVVIERIRYADDVAVSLETVHLPPRFAFLLDEDLNNHSLYECLREKYHLWFTHSRKMIELVYASFEVAHYLGVNEGYPLILIKSEMIDNKGELSCVSQQLIVGDKIRFTV,not soluble
6,MIETTLTGKTPDIGEENIKKLMTMFPEVVTEGKVDFEKLKQLLGEYVDDSNERYNFTWNGKGRALRLSQTPSLGTLRPCKEESKNWDTTQNLYIEGDNLEVLKLLQKSYYGKIKMIYIDPPYNTGKDFVYRDDFHDSLENYKRITGQVDGNGKAISTNTETSGRYHTDWLNMMYPRLRLARNLLSDDGVIFISIDDNEVDNLKKICNEIFGEDNFIANCVRKRRDSQANLSQNISPIHEYVLIYAKRFGNILNKVTPSLDMGSYKNPDNDPRGPYTTMPCTNVGGAVYSIVTPTGKTITDEWRFKKETFEKLLLDNRIVFPRNGEGKPRYKIFLSEKMAEGVLANTWLDKIASNQEGTREIKELFGGLLFNNPKPTGLLKFLLELGSSKDSIILDFFSGSATTAHAVMQLNAEDGGNRRFIMVQLPEPTDENSEAYKAGYMNISEIGKERIRRAGEKIKEEYKDKGNIENLDIGFKVFKLDTSNIRKWQPDYDNLEQSLMDYVDNFVEGRTELDVVYEIMLKYGLDLTYPVDEFTIAGKKVYSIGYGMLMICLDNEITTEVAKGILTKIKELSPESSRVVFKDNGFKTDSNKTNIKEILKSGGIEEFITI,not soluble
7,MIFKVGDTVVYPHHGAALIEAIETRTIKGEQKEYLVLKVAQGDLTVRVPADNAEYVGVRDVVGQEGLDKVFQVLRAPHTEEPTNWSRRYKANLEKLASGDVNKVAEVVRDLWRREQDRGLSAGEKRMLAKARQILVGELALAEGTDSDKAETILDEVLAAAS,not soluble
8,MIFPVARYALRWLRRPEDRAFSRAAMEMALRGVRKVLCVAEKNDAAKGIADLLSNGRMRRREGLSKFNKIYEFDYHLYGQNVTMVMTSVSGHLLAHDFQMQFRKWQSCNPLVLFEAEIEKYCPENFVDIKKTLERETRQCQALVIWTDCDREGENIGFEIIHVCKAVKPNLQVLRARFSEITPHAVRTACENLTEPDQRVSDAVDVRQELDLRIGAAFTRFQTLRLQRIFPEVLAEQLISYGSCQFPTLGFVVERFKAIQAFVPEIFHRIKVTHDHKDGIVEFNWKRHRLFNHTACLVLYQLCVEDPMATVVEVRSKPKSKWRPQALDTVELEKLASRKLRINAKETMRIAEKLYTQGYISYPRTETNIFPRDLNLTVLVEQQTPDPRWGAFAQSILERGGPTPRNGNKSDQAHPPIHPTKYTNNLQGDEQRLYEFIVRHFLACCSQDAQGQETTVEIDIAQERFVAHGLMILARNYLDVYPYDHWSDKILPVYEQGSHFQPSTVEMVDGETSPPKLLTEADLIALMEKHGIGTDATHAEHIETIKARMYVGLTPDKRFLPGHLGMGLVEGYDSMGYEMSKPDLRAELEADLKLICDGKKDKFVVLRQQVQKYKQVFIEAVAKAKKLDEALAQYFGNGTELAQQEDIYPAMPEPIRKCPQCNKDMVLKTKKNGGFYLSCMGFPECRSAVWLPDSVLEASRDSSVCPVCQPHPVYRLKLKFKRGSLPPTMPLEFVCCIGGCDDTLREILDLRFSGGPPRASQPSGRLQANQSLNRMDNSQHPQPADSRQTGSSKALAQTLPPPTAAGESNSVTCNCGQEAVLLTVRKEGPNRGRQFFKCNGGSCNFFLWADSPNPGAGGPPALAYRPLGASLGCPPGPGIHLGGFGNPGDGSGSGTSCLCSQPSVTRTVQKDGPNKGRQFHTCAKPREQQCGFFQWVDENTAPGTSGAPSWTGDRGRTLESEARSKRPRASSSDMGSTAKKPRKCSLCHQPGHTRPFCPQNR,soluble
9,MIFVLDVGNTNTVLGVYDGDELKHHWRIETSRSKTEDEYGMMIKALLNHVGLQFSDIRGIIISSVVPPIMFALERMCLKYFHIKPLIVGPGIKTGLDIKYDNPREVGADRIVNAVAGIHLYGSPLIIVDFGTATTYCYINEHKQYMGGAIAPGIMISTEALFARAAKLPRIEIARPDDIIGKNTVSAMQAGILYGYVGQVEGIVSRMKAKSKIPPKVIATGGLAPLIASESDIIDVVDPFLTLTGLKLLYEKNTEKKG,soluble
10,MIGKCTHVVDCRETMGMGEGGGIAQRGTFAQCGSEVLAVAMSPGRRHITKPVCEITFALREANIMTSTIVLNAGAGVPQDAPSAGAGSLFGLTPAEVEQMKRHKLLVVHLGGVKNHITYKARLILRNVDRPCIIICEYPVDFEDFAKIGVRTRAVMPDEPKTKGTIVDIVSGVIRGETCPQEKLDEIIRKVKLALGGALEHHHHHH,not soluble
11,MIGLFNDCFPPIMDGVSLTTQNYAYWLHRKAGNVCVVTPKSPDARDAEEYPVYRYSSVPIPMRKPYRLGFPRIDWPFHERISRLSFELVHAHCPFSSGALAMQIAREQHVPIVATFHSKYRADFERAIPSRLLVNYLIRKVIRFYEAADEVWIPQAAVEETLREYGYKGRIEVVDNGNDFAGTPFLQSVRQEARRTLGIRSGEFMFLFVGQHIWEKNLGFLLDSLVRLSDIPFRMYFVGSGYASHELKQKVVELGLASKVSFVGSIVEREILKRYYVAADLFLFPSLYDNAPLVIREAAALGTPSVLIRDSTASEIISDSVNGFLSPNSTEAYSNRIREILCSTAIIKQVGEEASRTIARSWEDVAGEVYDRYNRLIKRNGNKLEHHHHHH,soluble
12,MIGVVIPAHNEEQLLADCLRCALKAASHPELNEDVAILVVLDSCSDGSLDIARQFAVQHLQLQVRNVGRARAAGAQLLLQAGARWLSCTDADSRVPEDWLVAQLALGADAVCGTVTVDRWSESFEPQARIRYHDAYQDSDGHRHIHGANLGISAAAYVRAGGFEALACHEDVQLVRQLQRCGASIAWSRHPQVITSGRLDSRAKGGFGDYLKGLNEPCAGLLEHHHHHH,not soluble
13,MIHTLAKCEWIKKSLPLCLIGDSGTGKSHLLIALGTEAAMAGYRVKYVLATKLVNELVEAADEKQLTKTIARYGRVDLLCIDELGYMELDRRGAELLFQVLTEREEKNSVAIASNESFSGWTKTFTDPRLCAAIVDRLTFGGNIIETGTDSYRLATTRARAEQQAVVLEHHHHHH,not soluble
14,MIIGVLAIQGDVEEHEEAIKKAGYEAKKVKRVEDLEGIDALIIPGGESTAIGKLMKKYGLLEKIKNSNLPILGTCAGMVLLSKGTGINQILLELMDITVKRNAYGRQVDSFEKEIEFKDLGKVYGVFIRAPVVDKILSDDVEVIARDGDKIVGVKQGKYMALSFHPELSEDGYKVYKYFVENCVKK,soluble
15,MIIKSISLMHDRGNGLGGGFAAYGIYPDFKEFFAFHLMYENGMALQLTEEYLERHFFVEHYEEIPTRRTPAIVHPPLFKRYFVKPLETPEYREAIDYQNMTDEDVVVRHVMAINNEIEGAFVVSSGKNMGAFKGVGYPEEIADFFRLEEYTGYIWTAHNRFPTNTPGWWGGAHPFTLLDWSIVHNGEISSYGINKRYLEMYGYVCTMLTDTEVVAYTLDLLIRKHGLTPELASLAMAAPFWDMIDGLPDDERQLLTAIRQVYGSALLNGPFAILFASNEGLIGLNDRVKLRPLVCATKDDFVYMASEEAAIREICPAPDKVWSPRGGEPVIVKMQPGVI,not soluble
16,MIITGSFGNGHLQVTQSVVNQFKEMNLDNLTVIEHDLFLEAHPILTSICKKWYINSFKYFRNMYKAFYYSQPDQLDKCFYKYYGLNKLMNLLLKEKPDLILLTFPTPVMSVLTEQFDMNIPIATVMTDYRMQKNWITPFSQRYYLATEELKDEFASIGIPKDKLKVTGIPISDKFELEHHHHHH,soluble
17,MIIYRDLISHDVMFSDIYKIREIADGLCLEVEGKMVSRTEGNIDDSLIGGNASAEGPEGEGTESTVITGVDIVMNHHLQETSFTKEAYKKYIKDYMKSIKGKLEEQRPERVKPFMTGAAEQIKHILANFKNYQFFIGENMNPDGMVALLDYREDGVTPYMIFFKDGLEMEKCLEHHHHHH,soluble
18,MIKFSATLLATLIAASVNAATVDLRIMETTDLHSNMMDFDYYKDAATEKFGLVRTASLIEQARAEVKNSVLVDNGDVIQGSPLGDYMAAKGLKEGDVHPVYKAMNTLNYAVGNLGNHEFNYGLDFLHKALAGAKFPYVNANIIDAKTGKPMFTPYLIQDTRVVDSDGQIHTLRIGYIGFVPPQIMTWDKANLNGKVTVNDITETARKYIPEMRAKGADVVVVVAHSGLSADPYQAMAENSVYYLSQVPGVDAIMFGHAHAVFPGKDFANIKGADIAKGTLNGVPAVMPGMWGDHLGVVDLVLNNDSGKWQVTQSKAEARPIYDAVAKKSLAAEDGKLVSVLKADHDATREFVSK,not soluble
19,MIKKGYHVAVVGATGAVGQKIIELLENEMKFNVVEVTLLSSKRSAGKKVRFKGREIIIQEAKTTSFEGVDIAFFSAGGEVSRQFVTHAVSSGAIVIDNTSEYRMAQGVPLVVPEVNAHTLKQHKGIIAVPNCSALQMVTALQPIRKSFGLERIIVSTYQAVSGSGIHAIHELREQAKSILAGEEVKSDILPVKKDKKHYPIAFNVLPQVDIFTDNDFTFEEVKMIQETKKILEDENLKMAATCVRVPVVSGHSESVYIELEKEASVAEIKGILMDAPGVILQDNPSEQLYPMPLYAEGKIDTFVGRIRKDPDTPNGFHLWIVSDNLLKGAAWNSVQIAETLVEKGIL,not soluble
